20 sequences from the supplement of paper PMC9170038 can be followed below.

The subject of data set [1] is MS2 coat protein. Description: apparent KD of MS2 coat protein, switch ON state; designed switch direction (-1 OFF switch, 1 ON switch): -1; higher = weaker reporter binding. To be noted: FMN input: 0 or 200 uM; Eterna round: R93 (includes R88 designs). Summed up:
(§1)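 The buffer was 100 mM Tris-HCl pH 7.5 with 80 mM KCl and 4 mM MgCl2, used without or with constant ligand. In it, RNA switches transcribed on-chip from Illumina sequencing clusters were titrated with SNAP-549-labelled MS2 coat protein in twofold steps from 0.7 or 1.5 nM to 3 µM. Apparent KD for each design is the median of its normalised cluster binding-curve fits.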

The test system of data set [2] is MS2 coat protein. In words: apparent KD of MS2 coat protein, switch OFF state (with FMN for OFF switches, without FMN for ON switches); designed switch direction (-1 OFF switch, 1 ON switch): -1; higher = weaker reporter binding. Conditions: FMN input: 0 or 200 uM; Eterna round: R93 (includes R88 designs). Summed up: as §1

“AGGAUGUCAGGAUAUGUGUAAAGAAUAAAACAAAUAACAACACAGAAGGGACAUGAGGAUCACCCAUGUUACCC [May 38]”: the “apparent KD of MS2 coat protein” value was determined as 17.1 nM in the data set on MS2 coat protein [1] and 17.7 nM with MS2 coat protein [2].
For “AAGAAACAUGAGGAUCACCCAUGUGAGGAUAUUGAAAAGAAAAGAAAAGAAAGAAGAACAAGAAGGCACAAAGG [Merenhor]”, in that order: 39.4 nM and 37.8 nM.
The matching figures for “AAAGGAUCAGGAUAUGUGUGGAAAAAGUGUGUCCAAAAAAAACAUGAGGAUCACCCAUGUAGAAGGGAUCCAAA [Mod 4 of Normal (20/19) by Nando, Round 1]”: 222 nM and 260 nM.
With “AAAUUGUCAGGAUAUCGUAUAACAUGGAAAACAUGGAGAUACGAGAAGGGACAUGAGGAUCACCCAUGUAAAAC [May 95]”, the “apparent KD of MS2 coat protein” value in the data set with MS2 coat protein [1] stood at 51.6 nM; in the data set on MS2 coat protein [2], 87.4 nM.
As to “UCCUCACAUGAGGAUCACCCAUGUCAGGAUAUCUCACAGCGAAAGAAUAAAGGCUGCAAGAGAAGGGACACAAA [Raisa]”, the entries for the “apparent KD of MS2 coat protein” value in the data set with MS2 coat protein [1] and with MS2 coat protein [2] were 22.7 nM and 44.2 nM, respectively.
The matching figures for “AUAAAACAUGAGGAUCACCCAUGUGAGGAUAUAGGAAACAAACAAACAAACAAACAAACUAGAAGGCACAAUAA [Amethyst 10]”: 13 nM and 16.7 nM.
The matching figures for “UACUUACAUGAGGAUCACCCAUGUCAGGAUAUGCGCUCAGAGUAUAUAUAAGAUUCAAGCAGAAGGGACACUAA [JR_Exc001_Sub204]”: 34.8 nM and 37.2 nM.
The matching figures for “AAGUAUCGAGGAUAUACAUAGAUACAGAUUCAUGUAGAACUACAUGAGGAUCACCCAUGUAGAAGGCGAUAAUA [AJ 33]”: 31.8 nM and 79.3 nM.
Turning to “CUCUAGUGAGGAUAUACAAGAAAAGAAGAGAAAGAAAAGAAGUAGAAGGCACAUGAGGAUCACCCAUGUAAGAA [EteRNA is fun!]”, the “apparent KD of MS2 coat protein” value in the data set on MS2 coat protein [1] worked out at 24.7 nM; with MS2 coat protein [2], 33.6 nM.
For “AAUAAGUGAGGAUAUGGAAAUAAUAAAUAAAAUACCCUAAACCAGAAGGCACAUGAGGAUCACCCAUGUAAAUA [JR_Exc004_Sub003]”, in that order: 34.1 nM and 28 nM.
On to “AAGAACGUAGGAUAUACAUGAAAGAAAGAAAAGAAAAGAAAACAUGAGGAUCACCCAUGUAGAAGGACGUAGAA [EteRNA is fun!]”, for which the “apparent KD of MS2 coat protein” value with MS2 coat protein [1] came out at 20 nM; in the data set on MS2 coat protein [2], 22.1 nM.
For “AAAAAACAUGAGGAUCACCCAUGUUAGGAUAUCGUGCAGAAAAAAAAAAAAAACUGCACGAGAAGGAACAAGGA [Brourd - Exclusion 1 - Sub 2]”, in that order: 29.1 nM and 44.9 nM.
For “AAACCACAUGAGGAUCACCCAUGUGAGGAUAUGAACGAAAUAAAAUAAAAAUAAAAGUUCAGAAGGCACAAAAA [Mat - Exclusion 1 - Eli mod - D14]”, in that order: 18.2 nM and 20.6 nM.
The matching figures for “AAAAAACAUGAGGAUCACCCAUGUCAGGAUAUCUGUAAAAAUUAAAAAAAUAAAAUACAGAGAAGGGACAUAAA [Ex1: 606]”: 44 nM and 100 nM.
For the sequence “AAAAAUUGAGGAUAUACGUACAUGUCGAAAGACGUGAAGGGACAUGAGGAUCACCCAUGUAGAAGGCGAAAAAA [Mat - Exclusion 2 - JL mod - D73]”, the “apparent KD of MS2 coat protein” value was 45.6 nM in the data set on MS2 coat protein [1] and 27.9 nM in the data set with MS2 coat protein [2].
In the case of “CCUAAACAUGAGGAUCACCCAUGUGAGGAUAUGAUGCGAAUAAAGAAAGAAGAAAGCAUCAGAAGGCACAUAGG”, the “apparent KD of MS2 coat protein” value amounted to 41.1 nM in the data set with MS2 coat protein [1] and 283 nM in the data set on MS2 coat protein [2].
For “AUAAAGUGAGGAUAUACAUGAGGAUCACCCAUGUAAGAAAUAAAAUAAAUAAAGGGAAGUAGAAGGCACAAAUA [Denovo 1]”, in that order: 35.8 nM and 41.3 nM.
The matching figures for “AGUUGGCGAGGAUAUACAUGAGGAUCACCCAUGUGAAAUCGAGAAAAAAUAGGGAAAAGUAGAAGGCGCAGACA [Ruby 63]”: 20.6 nM and 24.1 nM.
For “AAAAAGGGAGGAUAUACAUGAGGAUCACCCAUGUAAAACGCGCCAACAAAGAAACAAAGUAGAAGGCCCAAAAA [Default title]”, in that order: 17.3 nM and 14.5 nM.
With “AACAGGUCAGGAUAUGUGUAAAAAAUAAAAAAAAUAUAAACACAGAAGGGACAUGAGGAUCACCCAUGUUAACA [May 26]”, the “apparent KD of MS2 coat protein” value in the data set with MS2 coat protein [1] was 31.5 nM; in the data set on MS2 coat protein [2], 35.7 nM.
